Reference: paper PMC8751750, “Effect of using different co-ligands during ^99mTc-labeling of J18 peptide on SK-MES-1 cell binding and tumor targeting” (Iranian Journal of Basic Medical Sciences, 2021)
Read-outs that look alike come from different tables or passages of the source. Peptide text beside a SMILES is read from it.

Legend:
[1] = Biodistribution in SK-MES-1 xenografted nude mice; format: in vivo, female C57 nu/nu mice; settings: female, C57 nu/nu, mouse, in vivo, iv, total radioactivity, SK-MES-1 xenograft nude mice, n=4; for tissue uptake at 1 h / tissue uptake at 2 h / tissue uptake at 4 h: mean ± SD
Description: (§1) The tumor biodistribution and targeting properties of the radiolabeled peptides were carried out in female C57 nu/nu mice bearing SK-MES-1 (Pasture Institute, North Branch and Amol, Iran). The tumor was grafted by subcutaneous injection of SK-MES-1 cells at a concentration of 4×10^6 cells/mouse into the right front flank of the mice and left to grow over a period of 20 days. The mice were ready for biodistribution when tumor size reached 0.7–1 cm^3 in mean diameter, all mice received intravenous co-injections of (^99mTc) Tc-HYNIC-(Ser)3-J18 peptide 1 or (^99mTc )Tc-HYNIC-(Ser)3-J18 peptide 2 (1 μg in 100 μl buffer) after 1, 2, and 4 hr post-injection, respectively (n=4 mice per group). In order to measure the radiopeptides’ nonspecific uptake of the radiopeptides, one group of four animals was injected with 300 μg of non-labeled peptide in a 50 μl buffer. The mice in the blocking group were euthanized 2 hr after the injection. Mice organ and tissue samples were collected, and radioactivity uptake was calculated as a percentage of the administered dose per gram tissue (%ID/g).

SK-MES-1 tumors = experiment: Biodistribution in SK-MES-1 xenografted nude mice; format: in vivo, female C57 nu/nu mice; settings: SK-MES-1 xenograft nude mice, n=4; for Intestine uptake (with contents): mean ± SD
Description: as §1

[2] = 1 ug, i.v. 1 μg in 100 μl, read-out: Muscle uptake
[3] = 1 ug, i.v. 1 μg in 100 μl, read-out: Spleen uptake
[4] = 1 ug, i.v. 1 μg in 100 μl, read-out: Tumor uptake
[5] = 1 ug, read-out: Tumor/blood ratio
[6] = 1 ug, read-out: Tumor/bone ratio
[7] = 1 ug, read-out: Tumor/liver ratio
[8] = 1 ug, read-out: Tumor/muscle ratio

SMILES: CC(C)C[C@H](NC(=O)[C@H](CO)NC(=O)[C@H](CCCNC(=N)N)NC(=O)[C@H](CO)NC(=O)[C@H](CO)NC(=O)[C@H](CO)NC(=O)c1ccc(NN)nc1)C(=O)N[C@@H](Cc1c[nH]c2ccccc12)C(=O)N[C@@H](CO)C(=O)N[C@@H](CC(=O)O)C(=O)N[C@@H](Cc1ccccc1)C(=O)N[C@@H](Cc1ccc(O)cc1)C(=O)N[C@@H](C)C(=O)N[C@@H](CO)C(=O)N[C@@H](C)C(=O)N[C@@H](CO)C(=O)N[C@@H](CCCNC(=N)N)C(=O)NCC(=O)N1CCC[C@H]1C(=O)O [Peptide 1, (^99mTc)Tc-HYNIC-(Ser)3-J18 with tricine, metal not drawn] (HELM PEPTIDE1{[NNc1ccc(C(=O)[*:2])cn1].S.S.S.R.S.L.W.S.D.F.Y.A.S.A.S.R.G.P}$$$$V2.0; C-terminus assumed)
- tissue uptake at 1 h ([1]; 1 ug, i.v. 1 μg in 100 μl, read-out: Blood uptake): 0.18 ± 0.09 %ID/g
- tissue uptake at 1 h [1, 2]: 0.19 ± 0.05 %ID/g
- tissue uptake at 1 h [1, 3]: 0.25 ± 0.07 %ID/g
- tissue uptake at 1 h ([1]; 1 ug, i.v. 1 μg in 100 μl, read-out: Stomach uptake): 0.38 ± 0.09 %ID/g
- tissue uptake at 1 h [1, 4]: 0.97 ± 0.03 %ID/g
- tissue to tissue ratio at 1 h [1, 5]: 5.36
- tissue to tissue ratio at 1 h [1, 6]: 7.46
- tissue to tissue ratio at 1 h [1, 7]: 3.59
- tissue to tissue ratio at 1 h [1, 8]: 5.1
- tissue uptake at 2 h ([1]; 1 ug, 2 hr, i.v. 1 μg in 100 μl, read-out: Heart uptake): 0.12 ± 0.04 %ID/g
- tissue uptake at 2 h ([1]; 1 ug, 2 hr, i.v. 1 μg in 100 μl, read-out: Liver uptake): 0.2 ± 0.09 %ID/g
- tissue uptake at 2 h ([1]; 1 ug, 2 hr, i.v. 1 μg in 100 μl, read-out: SG&T (salivary glands and thyroid) uptake): 0.13 ± 0.05 %ID/g
- tissue uptake at 2 h ([1]; 1 ug, 2 hr, i.v. 1 μg in 100 μl, read-out: Spleen uptake): 0.15 ± 0.04 %ID/g
- tissue uptake at 2 h ([1]; 1 ug, 2 hr, i.v. 1 μg in 100 μl, read-out: Stomach uptake): 0.25 ± 0.03 %ID/g
- tissue uptake at 2 h ([1]; 1 ug, 2 hr, i.v. 1 μg in 100 μl, read-out: Tumor uptake): 0.5 ± 0.03 %ID/g
- tissue to tissue ratio at 2 h ([1]; 1 ug, 2 hr, read-out: Tumor/liver ratio): 2.5
- tissue to tissue ratio at 2 h ([1]; 1 ug, 2 hr, read-out: Tumor/muscle ratio): 6.16
- tissue uptake at 4 h ([1]; 1 ug, i.v. 1 μg in 100 μl, read-out: Bone uptake): 0.01 %ID/g
- tissue uptake at 4 h ([1]; 1 ug, i.v. 1 μg in 100 μl, read-out: Heart uptake): 0.07 ± 0.01 %ID/g
- tissue uptake at 4 h ([1]; 1 ug, i.v. 1 μg in 100 μl, read-out: Kidney uptake): 0.27 ± 0.03 %ID/g
- tissue uptake at 4 h ([1]; 1 ug, i.v. 1 μg in 100 μl, read-out: Liver uptake): 0.07 ± 0.02 %ID/g
- tissue uptake at 4 h ([1]; 1 ug, i.v. 1 μg in 100 μl, read-out: Lung uptake): 0.04 ± 0.01 %ID/g
- tissue uptake at 4 h [1, 2]: 0.04 ± 0.01 %ID/g
- tissue uptake at 4 h ([1]; 1 ug, i.v. 1 μg in 100 μl, read-out: SG&T (salivary glands and thyroid) uptake): 0.03 ± 0.02 %ID/g
- tissue uptake at 4 h [1, 3]: 0.03 ± 0.01 %ID/g
- tissue uptake at 4 h [1, 4]: 0.2 ± 0.09 %ID/g
- tissue to tissue ratio at 4 h [1, 5]: 3.81
- tissue to tissue ratio at 4 h [1, 6]: 20
- tissue to tissue ratio at 4 h ([1]; 1 ug, read-out: Tumor/kidney ratio): 0.74
- tissue to tissue ratio at 4 h [1, 7]: 2.85
- tissue to tissue ratio at 4 h [1, 8]: 5
- tissue uptake at 2 h ([1]; 2h-blocked (300 μg non-labeled peptide 0.5 hr before), i.v. 1 μg, read-out: Blood uptake): 0.36 ± 0.02 %ID/g
- tissue uptake at 2 h ([1]; 2h-blocked (300 μg non-labeled peptide 0.5 hr before), i.v. 1 μg, read-out: Heart uptake): 0.18 ± 0.03 %ID/g
- tissue uptake at 2 h ([1]; 2h-blocked (300 μg non-labeled peptide 0.5 hr before), i.v. 1 μg, read-out: Kidney uptake): 3.2 ± 0.02 %ID/g
- tissue uptake at 2 h ([1]; 2h-blocked (300 μg non-labeled peptide 0.5 hr before), i.v. 1 μg, read-out: Liver uptake): 0.23 ± 0.04 %ID/g
- tissue uptake at 2 h ([1]; 2h-blocked (300 μg non-labeled peptide 0.5 hr before), i.v. 1 μg, read-out: Muscle uptake): 0.23 ± 0.03 %ID/g
- tissue uptake at 2 h ([1]; 2h-blocked (300 μg non-labeled peptide 0.5 hr before), i.v. 1 μg, read-out: SG&T (salivary glands and thyroid) uptake): 0.17 ± 0.02 %ID/g
- tissue uptake at 2 h ([1]; 2h-blocked (300 μg non-labeled peptide 0.5 hr before), i.v. 1 μg, read-out: Spleen uptake): 0.2 ± 0.01 %ID/g
- tissue uptake at 2 h ([1]; 2h-blocked (300 μg non-labeled peptide 0.5 hr before), i.v. 1 μg, read-out: Stomach uptake): 0.3 ± 0.02 %ID/g
- tissue to tissue ratio at 2 h ([1]; 2h-blocked (300 μg non-labeled peptide), read-out: Tumor/blood ratio): 0.8
- tissue to tissue ratio at 2 h ([1]; 2h-blocked (300 μg non-labeled peptide), read-out: Tumor/liver ratio): 1.26
- tissue to tissue ratio at 2 h ([1]; 2h-blocked (300 μg non-labeled peptide), read-out: Tumor/muscle ratio): 1.26
- Intestine uptake (with contents) (SK-MES-1 tumors; 1 hr, i.v. 1 μg in 100 μl): 0.73±0.06 percentage of injected dose per whole sample
- Tumor/muscle ratio (SK-MES-1 tumors; 1 hr, listed as 99mTc-peptide 1): 5.1
- Intestine uptake (with contents) (SK-MES-1 tumors; 2h-blocked (300 μg non-labeled peptide 0.5 hr before), i.v. 1 μg): 0.24 ±0.09 percentage of injected dose per whole sample
- Intestine uptake (with contents) (SK-MES-1 tumors; 2 hr, i.v. 1 μg in 100 μl): 0.59±0.02 percentage of injected dose per whole sample
- Intestine uptake (with contents) (SK-MES-1 tumors; 4 hr, i.v. 1 μg in 100 μl): 0.04±0.01 percentage of injected dose per whole sample
